Experimental data from US20060188526A1, “Method for enhancing the immune response to Staphylococcus aureus infection” (priority 2005, published 2006).

How the values were obtained:
[1] = biological target: T1, C3b bound to S. aureus surface (Homo sapiens, UniProt P01024); test: C3-fragments bound to C3b-coated S. aureus with factor H, factor I or both (ELISA, Western blot); assay type: biochemical
T1 construct: purchased Advance Research Technologies, San Diego, Calif
Description: Opsonization with purified complement components. Washed bacteria (1×10^9 CFU in GVBS^++ buffer) were incubated with 0.35% IVIg for 30 min. at room temperature in order to sensitize the bacteria for activating the classical complement pathway. Antibody-coated bacteria were then incubated in 60% DGVBS^++ buffer with the purified human complement proteins C1, C4, C2, and C3 to generate the classical complement pathway C3-convertase and bind C3b to the S. aureus surface. Bacteria were incubated with C1 (2 μg/ml) at 30° C. for 15 min., and then with C4 (10 μg/ml) at 37° C. for 45 min. Bacteria were then incubated with C2 (0.5 μg/ml) and C3 (10 μg/ml) together at 30° C. for 30 min. C3b-coated staphylococci were then incubated with factor H (40 μg/ml), factor 1 (4 μg/ml), or both factors for 30 min. at 37° C. The bacteria pellet was then sedimented and the supernatants recovered to measure C3-fragments released from the bacteria. The bacteria were then washed and treated with 0.05 ml of 25 mM methylamine (Sigma-Aldrich) for 60 min. at 37° C. to recover C3-fragments bound by ester bonds to the S. aureus surface. The stripped bacteria were sedimented and the supernatants containing previously surface bound C3-fragments were recovered for testing by ELISA and Western blot. […]
(§1) Analysis of surface-bound and released C3-fragments. ELISA was used to quantitate total C3-fragment amount and iC3b amount as follows. […] Plates were washed 3 three times with PBS/Tween buffer and developed with TMB Plus (Accurate Chemical), stopped with 2.5 N H2SO4, and read at 450 nm.
Values for C3-fragments bound and iC3b bound to S. aureus opsonized in serum were calculated subtracting the values obtained with heat inactivated serum from the values obtained with NHS. Methylamine supernatants of surface bound C3-fragments were analyzed by Western blot analysis performed with polyclonal goat anti-human C3 antibody (Advanced Research Technologies) and horseradish peroxidase-labeled rabbit anti-goat antibody (Sigma-Aldrich). Bound antibody was detected by enhanced chemiluminescence.

[2] = biological target: T1, C3b bound to S. aureus surface; test: C3-fragments released from C3b-coated S. aureus with factor H, factor I or both (C3 ELISA, Western blot); assay type: biochemical
Description: Opsonization with purified complement components. Washed bacteria (1×10^9 CFU in GVBS^++ buffer) were incubated with 0.35% IVIg for 30 min. at room temperature in order to sensitize the bacteria for activating the classical complement pathway. Antibody-coated bacteria were then incubated in 60% DGVBS^++ buffer with the purified human complement proteins C1, C4, C2, and C3 to generate the classical complement pathway C3-convertase and bind C3b to the S. aureus surface. Bacteria were incubated with C1 (2 μg/ml) at 30° C. for 15 min., and then with C4 (10 μg/ml) at 37° C. for 45 min. Bacteria were then incubated with C2 (0.5 μg/ml) and C3 (10 μg/ml) together at 30° C. for 30 min. C3b-coated staphylococci were then incubated with factor H (40 μg/ml), factor 1 (4 μg/ml), or both factors for 30 min. at 37° C. […]
as §1
Values for C3-fragments bound and iC3b bound to S. aureus opsonized in serum were calculated subtracting the values obtained with heat inactivated serum from the values obtained with NHS. […] Bound antibody was detected by enhanced chemiluminescence.

[3] = tested on: C3b-coated S. aureus phagocytosis by human polymorphonuclear leukocytes (PMN); test: Phagocytosis assay, C3b-coated S. aureus (purified complement components) incubated with factor H, factor I or both; assay type: cell-based; settings: compared with untreated C3b-coated S. aureus, factor H 40 μg/ml, factor I 4 μg/ml
Description: Bacterial strains and growth. Staphylococcus aureus strain Reynolds, capsule polysaccharide serotype 5, was used in all experiments. This strain has a pattern of C3-fragment deposition similar to other capsule polysaccharide serotype 5 and 8 strains—the serotypes that account for the majority of human S. aureus infections. Mid-logarithmic phase bacteria were grown in Columbia 2% NaCl broth at 37° C. with agitation for 2 hours to an optical densitometry of 0.7 to 1.3 at 600 nm. In midlogarithmic phase growth minimal capsule is expressed by strain Reynolds.
Opsonization with purified complement components. Washed bacteria (1×10^9 CFU in GVBS^++ buffer) were incubated with 0.35% IVIg for 30 min. at room temperature in order to sensitize the bacteria for activating the classical complement pathway. Antibody-coated bacteria were then incubated in 60% DGVBS^++ buffer with the purified human complement proteins C1, C4, C2, and C3 to generate the classical complement pathway C3-convertase and bind C3b to the S. aureus surface. […]
Phagocytosis assay. […] Bacteria and PMN were visualized by fluorescence microscopy using broad wavelength excitation and emission filters that allow visualization at 100× magnification. Microscope slides were blinded to the reader, and 100 neutrophils per slide were counted to determine the percent of PMN phagocytosing bacteria and total number of S. aureus ingested.

T1 sequence (P01024 749-1663): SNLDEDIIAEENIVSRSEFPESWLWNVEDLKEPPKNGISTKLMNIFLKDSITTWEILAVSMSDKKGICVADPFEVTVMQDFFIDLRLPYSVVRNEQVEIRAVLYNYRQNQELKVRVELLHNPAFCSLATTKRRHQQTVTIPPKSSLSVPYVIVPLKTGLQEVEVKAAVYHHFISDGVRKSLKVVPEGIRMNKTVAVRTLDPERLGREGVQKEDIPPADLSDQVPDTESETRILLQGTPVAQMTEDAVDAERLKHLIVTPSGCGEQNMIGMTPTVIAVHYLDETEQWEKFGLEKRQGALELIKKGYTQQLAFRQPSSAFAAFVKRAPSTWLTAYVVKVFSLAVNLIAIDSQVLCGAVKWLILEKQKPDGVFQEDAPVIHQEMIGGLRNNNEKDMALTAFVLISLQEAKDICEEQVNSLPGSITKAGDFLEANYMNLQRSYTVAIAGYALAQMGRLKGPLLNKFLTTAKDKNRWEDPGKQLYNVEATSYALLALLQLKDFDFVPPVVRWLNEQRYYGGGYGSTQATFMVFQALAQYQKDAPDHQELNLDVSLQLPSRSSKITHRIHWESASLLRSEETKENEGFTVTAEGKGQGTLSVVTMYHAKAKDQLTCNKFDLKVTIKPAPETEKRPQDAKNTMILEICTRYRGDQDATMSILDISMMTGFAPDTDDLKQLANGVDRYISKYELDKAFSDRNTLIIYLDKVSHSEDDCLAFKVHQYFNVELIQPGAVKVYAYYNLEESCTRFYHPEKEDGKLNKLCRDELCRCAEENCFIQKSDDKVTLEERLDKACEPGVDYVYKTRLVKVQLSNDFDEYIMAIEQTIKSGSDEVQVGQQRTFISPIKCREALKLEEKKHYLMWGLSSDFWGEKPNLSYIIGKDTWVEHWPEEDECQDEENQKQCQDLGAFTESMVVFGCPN
T1 sequence (P01024 23-667): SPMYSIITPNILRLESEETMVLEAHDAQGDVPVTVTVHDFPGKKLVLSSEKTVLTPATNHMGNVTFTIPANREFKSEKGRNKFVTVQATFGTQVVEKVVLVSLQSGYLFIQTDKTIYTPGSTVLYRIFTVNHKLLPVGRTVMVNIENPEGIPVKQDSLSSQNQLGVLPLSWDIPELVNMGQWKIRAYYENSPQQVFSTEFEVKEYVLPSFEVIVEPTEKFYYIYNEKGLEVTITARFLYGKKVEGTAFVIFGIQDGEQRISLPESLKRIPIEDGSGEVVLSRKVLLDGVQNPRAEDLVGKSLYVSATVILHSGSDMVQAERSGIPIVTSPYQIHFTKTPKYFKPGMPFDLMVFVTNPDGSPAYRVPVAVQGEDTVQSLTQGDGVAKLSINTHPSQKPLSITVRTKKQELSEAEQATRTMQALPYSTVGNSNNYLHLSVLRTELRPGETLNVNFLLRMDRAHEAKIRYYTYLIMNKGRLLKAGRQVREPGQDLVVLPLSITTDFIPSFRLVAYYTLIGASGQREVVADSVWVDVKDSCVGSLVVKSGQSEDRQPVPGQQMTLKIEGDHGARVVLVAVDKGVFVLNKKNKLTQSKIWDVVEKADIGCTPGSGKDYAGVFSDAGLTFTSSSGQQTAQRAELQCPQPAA

B1: factor I: purified human complement regulatory protein factor I, serum enzyme that cleaves C3b to iC3b (protein, UniProt P05156 19-583, looked up)
Complement factor I: KVTYTSQEDLVEKKCLAKKYTHLSCDKVFCQPWQRCIEGTCVCKLPYQCPKNGTAVCATNRRSFPTYCQQKSLECLHPGTKFLNNGTCTAEGKFSVSLKHGNTDSEGIVEVKLVDQDKTMFICKSSWSMREANVACLDLGFQQGADTQRRFKLSDLSINSTECLHVHCRGLETSLAECTFTKRRTMGYQDFADVVCYTQKADSPMDDFFQCVNGKYISQMKACDGINDCGDQSDELCCKACQGKGFHCKSGVCIPSQYQCNGEVDCITGEDEVGCAGFASVTQEETEILTADMDAERRRIKSLLPKLSCGVKNRMHIRRKRIVGGKRAQLGDLPWQVAIKDASGITCGGIYIGGCWILTAAHCLRASKTHRYQIWTTVVDWIHPDLKRIVIEYVDRIIFHENYNAGTYQNDIALIEMKKDGNKKDCELPRSIPACVPWSPYLFQPNDTCIVSGWGREKDNERVFSLQWGEVKLISNCSKFYGNRFYEKEMECAGTYDGSIDACKGDSGGPLVCMDANNVTYVWGVVSWGENCGKPEFPGVYTKVANYFDWISYHVGRPFISQYNV
decrease of amount of total C3-fragments bound to C3b-coated S. aureus ([1]; C3 ELISA, compared to control bacteria (no factor H or I exposure), FIG. 4B): 58% | types of C3-fragments bound to the S. aureus surface, Western blot ([1]; compared with untreated C3b-coated S. aureus, FIG. 4C): less C3b and more iC3b | increase of amount of iC3b bound to S. aureus ([1]; iC3b ELISA, compared with untreated C3b-coated bacteria, FIG. 4A): 75% | amounts of C3-fragments shed from the S. aureus surface ([2]; C3 ELISA, compared with incubation in buffer alone, FIG. 5A): increased significantly | form of C3-fragments shed, Western blot with polyclonal anti-C3 antibody ([2]; FIG. 5B): likely iC3b or possibly C3c | decrease of percent of neutrophils phagocytosing C3b-coated S. aureus ([3]; FIG. 3A): 29% | decrease of number of C3b-coated S. aureus phagocytosed by 100 neutrophils ([3]; FIG. 3B): 40%
